# From paper PMC4241754 (Biochemistry, 2010)
# Target: the molecule itself
# Test: crystal structure
protein,measurement,value
WlbA from Pseudomonas aeruginosa (enzyme) MASKNFALIGAAGYIAPRHMRAIKDTGNCLVSAYDINDSVGIIDSISPQSEFFTEFEFFLDHASNLKRDSATALDYVSICSPNYLHYPHIAAGLRLGCDVICEKPLVPTPEMLDQLAVIERETDKRLYNILQLRHHQAIIALKDKVAREKSPHKYEVDLTYITSRGNWYLKSWKGDPRKSFGVATNIGVHFYDMLHFIFGKLQRNVVHFTSEYKAAGYLEYEQARVRWFLSVDANDLPESVKGKKPTYRSITVNGEEMEFSEGFTDLHTTSYEEILAGRGYGIDDARHCVETVNTIRSAVIVPASDNEGHPFVAALAR,stoichiometry N,4
